These results are taken from patent US20190276496A1 (FUNDACI N PARA LA INVESTIGACI N M DICA APLICADA, published 2019).

The target in the assay is human FOXP3 tagged with 6 histidines at the C terminus (human) (UniProt Q9BZS1). In words: SPR (ProteOn XPR36), FOXP3-6His immobilized on GLM chip, peptide 1-20 µM injected; ratio to p60 (SEQ ID NO: 1).

[ ]: non-standard residue; d: D form.

human FOXP3 tagged with 6 histidines at the C terminus (human), sequence (Q9BZS1 other isoform, or with tags, fused parts or gaps): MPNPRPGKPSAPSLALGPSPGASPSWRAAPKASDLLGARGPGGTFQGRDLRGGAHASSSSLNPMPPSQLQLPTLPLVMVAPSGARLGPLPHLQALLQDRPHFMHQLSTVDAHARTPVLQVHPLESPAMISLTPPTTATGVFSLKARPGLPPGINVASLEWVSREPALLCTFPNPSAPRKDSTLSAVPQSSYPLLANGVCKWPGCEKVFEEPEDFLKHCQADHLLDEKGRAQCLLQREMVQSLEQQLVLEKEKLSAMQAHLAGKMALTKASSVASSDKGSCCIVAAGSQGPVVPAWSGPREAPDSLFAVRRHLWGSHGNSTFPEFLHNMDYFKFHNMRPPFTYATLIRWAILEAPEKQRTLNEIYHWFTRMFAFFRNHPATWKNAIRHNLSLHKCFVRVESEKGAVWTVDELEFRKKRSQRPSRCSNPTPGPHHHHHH

B1: peptide of SEQ ID NO: 52 (peptide)
peptide: cyclo(R[dA]FQAFRKMWPFFAM)
SMILES: CSCC[C@@H]1NC(=O)[C@H](C)NC(=O)[C@H](Cc2ccccc2)NC(=O)[C@H](Cc2ccccc2)NC(=O)[C@@H]2CCCN2C(=O)[C@H](Cc2c[nH]c3ccccc23)NC(=O)[C@H](CCSC)NC(=O)[C@H](CCCCN)NC(=O)[C@H](CCCNC(=N)N)NC(=O)[C@H](Cc2ccccc2)NC(=O)[C@H](C)NC(=O)[C@H](CCC(N)=O)NC(=O)[C@H](Cc2ccccc2)NC(=O)[C@@H](C)NC(=O)[C@H](CCCNC(=N)N)NC1=O
Turning to B1, the Ratio binding Peptide/p60 (fold change) was 13 fold change.
The figure for RWFQSFRKMWPFFAM [peptide of SEQ ID NO: 9] is 1.4 fold change.
The value for RDFQRFRKMWPFFAM [peptide of SEQ ID NO: 20] was 3.7 fold change; that for RDFQSFRHMWPFFAM [peptide of SEQ ID NO: 28] was 2.6 fold change.
The figure for RDFQSFRKMWNFFAM [peptide of SEQ ID NO: 32] is 1.4 fold change; for RDFQSFRKMWYFFAM [peptide of SEQ ID NO: 35] it is 1.3 fold change.

B2: peptide of SEQ ID NO: 49 (peptide)
peptide: RDFQSFRKMWPFFAM
modifications: head-to-tail cyclic: linker L is C(=O) between the N-terminal amino group of residue 1 and the alpha carbon of residue 15
On to B2, for which the Ratio binding Peptide/p60 (fold change) was 5 fold change.
The value for RSFQSFRKMWPFFAM [peptide of SEQ ID NO: 7] was 1.4 fold change; that for H-RAFQAFRKMWPFFAM-OH [peptide of SEQ ID NO: 42] was 4.1 fold change.

B3: peptide of SEQ ID NO: 38 (peptide)
peptide: Ac-GRDFQSFRKMWAFFA[dM]-NH2
SMILES: CSCC[C@H](NC(=O)[C@H](CCCCN)NC(=O)[C@H](CCCNC(=N)N)NC(=O)[C@H](Cc1ccccc1)NC(=O)[C@H](CO)NC(=O)[C@H](CCC(N)=O)NC(=O)[C@H](Cc1ccccc1)NC(=O)[C@H](CC(=O)O)NC(=O)[C@H](CCCNC(=N)N)NC(=O)CNC(C)=O)C(=O)N[C@@H](Cc1c[nH]c2ccccc12)C(=O)N[C@@H](C)C(=O)N[C@@H](Cc1ccccc1)C(=O)N[C@@H](Cc1ccccc1)C(=O)N[C@@H](C)C(=O)N[C@H](CCSC)C(N)=O
With B3, the Ratio binding Peptide/p60 (fold change) is 1.1 fold change.
The figure for RDFQEFRKMWPFFAM [peptide of SEQ ID NO: 23] is 1.3 fold change.
The figure for RDFQKFRKMWPFFAM [peptide of SEQ ID NO: 25] is 4 fold change.
The figure for RDFQYFRKMWPFFAM [peptide of SEQ ID NO: 24] is 4.6 fold change; for RDWQSFRKMWPFFAM [peptide of SEQ ID NO: 16] it is 3.7 fold change; for H-R[dA]FQSFRKMWPFFAM-OH [peptide of SEQ ID NO: 6] it is 3.3 fold change.
On to RDFQNFRKMWPFFAM [peptide of SEQ ID NO: 21], for which the Ratio binding Peptide/p60 (fold change) came to 3.2 fold change.
The value for RDFQSFRRMWPFFAM [peptide of SEQ ID NO: 29] was 1.4 fold change; that for RDFQWFRKMWPFFAM [peptide of SEQ ID NO: 22] was 2.4 fold change.

B4: peptide of SEQ ID NO: 40 (peptide)
peptide: Ac-GRDFQSFRKMW[dA]FFAM-NH2
SMILES: CSCC[C@H](NC(=O)[C@H](C)NC(=O)[C@H](Cc1ccccc1)NC(=O)[C@H](Cc1ccccc1)NC(=O)[C@@H](C)NC(=O)[C@H](Cc1c[nH]c2ccccc12)NC(=O)[C@H](CCSC)NC(=O)[C@H](CCCCN)NC(=O)[C@H](CCCNC(=N)N)NC(=O)[C@H](Cc1ccccc1)NC(=O)[C@H](CO)NC(=O)[C@H](CCC(N)=O)NC(=O)[C@H](Cc1ccccc1)NC(=O)[C@H](CC(=O)O)NC(=O)[C@H](CCCNC(=N)N)NC(=O)CNC(C)=O)C(N)=O
Turning to B4, the Ratio binding Peptide/p60 (fold change) is 2.2 fold change.
The figure for RDFQSFRKMWVFFAM [peptide of SEQ ID NO: 33] is 1.3 fold change; for RDYQSFRKMWPFFAM [peptide of SEQ ID NO: 17] it is 3.3 fold change.
The figure for RDFQSFRKMWRFFAM [peptide of SEQ ID NO: 31] is 2.8 fold change.
In the case of RYFQSFRKMWPFFAM [peptide of SEQ ID NO: 8], the Ratio binding Peptide/p60 (fold change) was found to be 1.4 fold change.
With Ac-GRAFQSFRKMWAFFAM-NH2 [peptide of SEQ ID NO: 44], the Ratio binding Peptide/p60 (fold change) was found to be 3 fold change.

B5: peptide of SEQ ID NO: 53 (peptide)
peptide: cyclo(R[dA]FQAFRKMWPFFAM)
SMILES: CSCC[C@@H]1NC(=O)[C@H](C)NC(=O)[C@H](Cc2ccccc2)NC(=O)[C@H](Cc2ccccc2)NC(=O)[C@@H]2CCCN2C(=O)[C@H](Cc2c[nH]c3ccccc23)NC(=O)[C@H](CCSC)NC(=O)[C@H](CCCCN)NC(=O)[C@H](CCCNC(=N)N)NC(=O)[C@H](Cc2ccccc2)NC(=O)[C@H](C)NC(=O)[C@H](CCC(N)=O)NC(=O)[C@H](Cc2ccccc2)NC(=O)[C@@H](C)NC(=O)[C@H](CCCNC(=N)N)NC1=O
Turning to B5, the Ratio binding Peptide/p60 (fold change) was found to be 2.2 fold change.

B6: peptide of SEQ ID NO: 39 (peptide)
peptide: Ac-GRDFQ[dA]FRKMWPFFAM-NH2
SMILES: CSCC[C@H](NC(=O)[C@H](C)NC(=O)[C@H](Cc1ccccc1)NC(=O)[C@H](Cc1ccccc1)NC(=O)[C@@H]1CCCN1C(=O)[C@H](Cc1c[nH]c2ccccc12)NC(=O)[C@H](CCSC)NC(=O)[C@H](CCCCN)NC(=O)[C@H](CCCNC(=N)N)NC(=O)[C@H](Cc1ccccc1)NC(=O)[C@@H](C)NC(=O)[C@H](CCC(N)=O)NC(=O)[C@H](Cc1ccccc1)NC(=O)[C@H](CC(=O)O)NC(=O)[C@H](CCCNC(=N)N)NC(=O)CNC(C)=O)C(N)=O
With B6, the Ratio binding Peptide/p60 (fold change) turned out to be 3.3 fold change.

B7: peptide of SEQ ID NO: 43 (peptide)
peptide: Ac-GR[dA]FQ[dA]FRKMWPFFAM-NH2
SMILES: CSCC[C@H](NC(=O)[C@H](C)NC(=O)[C@H](Cc1ccccc1)NC(=O)[C@H](Cc1ccccc1)NC(=O)[C@@H]1CCCN1C(=O)[C@H](Cc1c[nH]c2ccccc12)NC(=O)[C@H](CCSC)NC(=O)[C@H](CCCCN)NC(=O)[C@H](CCCNC(=N)N)NC(=O)[C@H](Cc1ccccc1)NC(=O)[C@@H](C)NC(=O)[C@H](CCC(N)=O)NC(=O)[C@H](Cc1ccccc1)NC(=O)[C@@H](C)NC(=O)[C@H](CCCNC(=N)N)NC(=O)CNC(C)=O)C(N)=O
On to B7, for which the Ratio binding Peptide/p60 (fold change) worked out at 4.9 fold change.

B8: peptide of SEQ ID NO: 51 (peptide)
peptide: cyclo(R[dA]FQAFRKMWPFFAM)
SMILES: CSCC[C@@H]1NC(=O)[C@H](C)NC(=O)[C@H](Cc2ccccc2)NC(=O)[C@H](Cc2ccccc2)NC(=O)[C@@H]2CCCN2C(=O)[C@H](Cc2c[nH]c3ccccc23)NC(=O)[C@H](CCSC)NC(=O)[C@H](CCCCN)NC(=O)[C@H](CCCNC(=N)N)NC(=O)[C@H](Cc2ccccc2)NC(=O)[C@H](C)NC(=O)[C@H](CCC(N)=O)NC(=O)[C@H](Cc2ccccc2)NC(=O)[C@@H](C)NC(=O)[C@H](CCCNC(=N)N)NC1=O
On to B8, for which the Ratio binding Peptide/p60 (fold change) is 21.4 fold change.
The figure for RDFQSFRKMWKFFAM [peptide of SEQ ID NO: 37] is 4.1 fold change.

B9: peptide of SEQ ID NO: 54 (peptide)
peptide: cyclo(R[dA]FQAFRKMWPFFAM)
SMILES: CSCC[C@@H]1NC(=O)[C@H](C)NC(=O)[C@H](Cc2ccccc2)NC(=O)[C@H](Cc2ccccc2)NC(=O)[C@@H]2CCCN2C(=O)[C@H](Cc2c[nH]c3ccccc23)NC(=O)[C@H](CCSC)NC(=O)[C@H](CCCCN)NC(=O)[C@H](CCCNC(=N)N)NC(=O)[C@H](Cc2ccccc2)NC(=O)[C@H](C)NC(=O)[C@H](CCC(N)=O)NC(=O)[C@H](Cc2ccccc2)NC(=O)[C@@H](C)NC(=O)[C@H](CCCNC(=N)N)NC1=O
Take B9: the Ratio binding Peptide/p60 (fold change) is 25.3 fold change.
The value for RKFQSFRKMWPFFAM [peptide of SEQ ID NO: 12] was 2.2 fold change.
Consider RDLQSFRKMWPFFAM [peptide of SEQ ID NO: 18], for which the Ratio binding Peptide/p60 (fold change) was determined as 1.9 fold change.
In the case of RNFQSFRKMWPFFAM [peptide of SEQ ID NO: 11], the Ratio binding Peptide/p60 (fold change) is 1.4 fold change.
